Laboratory results: patent publication US20100092409A1 (DANISCO US, published 2010)
Where a chain is given by its changes, count along the chain named. Names may count otherwise. One block for each binder: values may come before it.

Key:
[1] = target: T1, vascular endothelial growth factor (VEGF) (UniProt P15692-4 27-191, limits assumed, labeled with biotin for the BioVeris assay (sites not given)); assay: BioVeris ECL competition with a labeled competitor; grade +++ = apparent IC50 about 2-10 µM
T1 sequence (P15692 other isoform, or with tags, fused parts or gaps limits assumed): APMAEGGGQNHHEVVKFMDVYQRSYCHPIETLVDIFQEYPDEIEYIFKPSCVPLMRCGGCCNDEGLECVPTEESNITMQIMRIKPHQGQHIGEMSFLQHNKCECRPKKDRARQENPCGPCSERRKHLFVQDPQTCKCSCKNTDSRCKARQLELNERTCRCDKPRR
Method: (§1) The resulting vectors were used to transform B. subtilis BG6006 host cells. Cultures were grown in 500 ml of MBD medium and the BBI species were purified essentially as described above and by Vogtentanz et al., 2007 (Protein Expr Purif 55:40-52 [2007]). BioVeris binding assays were performed essentially as outlined in Example 5 and by the manufacturer. Binding of the modified variant BBIs to their respective target proteins was measured using a BioVeris® binding assay, which is a competition assay that determines the binding of the modified variant BBIs to its target protein (e.g. VEGF, FGF5, TGFβ and TNFα) in the presence or absence of a labeled competitor. The competitor can be a labeled monoclonal antibody raised against the target protein or a labeled native receptor of the target protein. The electrochemiluminescent binding assays were performed essentially as described in Example 5. The apparent IC50s were determined from binding data by determining the concentration of the BBI species needed to reduce the BioVeris signal by one half. BBI scaffolds without the target binding peptide in the chymotrypsin inhibitory loop were used as negative controls.

[2] = target: T2, transforming growth factor β1 (TGFβ1) (UniProt P01137 279-390); assay: BioVeris ECL competition with a labeled competitor; grade ++ = apparent IC50 about 10-50 µM
T2 sequence (P01137 279-390 limits assumed): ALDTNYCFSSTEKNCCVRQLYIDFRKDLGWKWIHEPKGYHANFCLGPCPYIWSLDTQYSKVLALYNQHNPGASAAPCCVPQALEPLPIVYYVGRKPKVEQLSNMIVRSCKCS
Method: as §1

[3] = target: T2, transforming growth factor β1 (TGFβ1); assay: BioVeris ECL competition with a labeled competitor; negative control for TGFβ binding
Method: as §1

[4] = target: T3, fibroblast growth factor 5 (FGF-5) (UniProt P12034 21-268, limits assumed); assay: BioVeris ECL competition with a labeled competitor; grade ++ = apparent IC50 about 10-50 µM
T3 sequence (looked up): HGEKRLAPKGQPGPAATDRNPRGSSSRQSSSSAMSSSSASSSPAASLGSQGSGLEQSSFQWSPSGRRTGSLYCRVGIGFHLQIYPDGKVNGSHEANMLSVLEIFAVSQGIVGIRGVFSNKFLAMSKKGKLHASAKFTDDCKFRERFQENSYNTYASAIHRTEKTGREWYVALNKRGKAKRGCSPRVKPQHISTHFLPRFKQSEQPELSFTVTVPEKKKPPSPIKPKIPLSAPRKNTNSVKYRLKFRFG
Method: as §1

[5] = target: T1, vascular endothelial growth factor …; assay: BioVeris ECL competition with a labeled competitor; negative control for VEGF binding
Method: as §1

[6] = target: T3, fibroblast growth factor 5 (FGF-5); assay: BioVeris ECL competition with a labeled competitor; negative control for FGF-5 binding
Method: as §1

[7] = target: T1, vascular endothelial growth factor …; assay: BioVeris ECL competition with a labeled competitor; grade ++ = apparent IC50 about 10-50 µM
Method: as §1

[8] = target: T4, tumor necrosis factor α (TNFα) (UniProt P01375 77-233); assay: BioVeris ECL competition with a labeled competitor; grade + = apparent IC50 about 50-250 µM
T4 sequence (P01375 77-233 limits assumed): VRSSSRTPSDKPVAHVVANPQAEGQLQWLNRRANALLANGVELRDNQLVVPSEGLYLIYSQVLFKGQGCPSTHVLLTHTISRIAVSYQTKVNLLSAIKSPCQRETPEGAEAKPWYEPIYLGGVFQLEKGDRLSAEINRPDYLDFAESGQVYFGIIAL
Method: as §1

[9] = target: T4, tumor necrosis factor α (TNFα); assay: BioVeris ECL competition with a labeled competitor; grade ++ = apparent IC50 about 10-50 µM
Method: as §1

[10] = target: T4, tumor necrosis factor α (TNFα); assay: BioVeris ECL competition with a labeled competitor; negative control for TNFα binding
Method: as §1

IC50 [1]: 2 to 10 µM
B1: BBIt-AV-A13I-L29P-A40K-F50T-V52A (designed binder)
chain: DPDDESSKPCCDQCICTKSNPPQCRCSDMRPNSCHSACKSCKCYNLYGWTCTCADITDFCYEPCKPSE
notes: also called TA5; quintuple variant

IC50 [2]: 10 to 50 µM
B2: MM021W-Q-BBIt-TGFβ1 (designed binder)
chain: B1 chain with K42A, Y44K, N45H, L46N, Y47V, G48D, T50L
notes: also called BBIt-MM021W-Q-A13I-L29P-F50T-V52A

IC50 [3]: > 250 µM | IC50 [4]: 10 to 50 µM
B3: FGFps2-Q-BBIt-FGF-5 (designed binder)
chain: B1 chain with K42A, Y44T, N45W, L46I, Y47D, G48S, W49T, T50P
notes: also called BBIt-FGFps2-Q-A13I-L29P-F50T-V52A

IC50 [2]: 10 to 50 µM
B4: WTQ-Q-BBIt-TGFβ1 (designed binder)
chain: B1 chain with K42A, Y44W, N45T, L46Q, Y47H, G48I, W49H, T50N
notes: also called WTQ-BBIt-Q-TGF; BBIt-WTQ-Q-A13I-L29P-F50T-V52A

IC50 [4]: 10 to 50 µM
B5: MM007-Q-BBIt-FGF-5 (designed binder)
chain: B1 chain with K42A, Y44R, N45T, L46Q, Y47P, G48Y, W49P, T50L
notes: also called BBIt-MM007-Q-A13I-L29P-F50T-V52A

IC50 [1]: 2 to 10 µM
B6: BBIt-AV-A13I-A40K-F50T-V52A (designed binder)
chain: B1 chain with P31L

IC50 [1]: 2 to 10 µM
B7: BBIt-AV-A13I-S25K-M27A-L29R-S31A-A40H-F50R-V52L (designed binder)
chain: B1 chain with S27K, M29A, P31R, S33A, K42H, T52R, A54L
notes: also called RL8

IC50 [1]: 2 to 10 µM
B8: BBIt-AV-A13I-S25R-M27A-L29P-S31A-A40H-F50K-V52T (designed binder)
chain: B1 chain with S27R, M29A, S33A, K42H, T52K, A54T
notes: also called KT8

IC50 [1]: 2 to 10 µM
B9: BBIt-AV-A13I-S25K-M27A-L29R-S31E-A40K-F50Q-V52Q (designed binder)
chain: B1 chain with S27K, M29A, P31R, S33E, T52Q, A54Q
notes: also called QQ8

IC50 [1]: 2 to 10 µM
B10: BBIt-AV (truncated BBI-AV, unmodified variant) (designed binder)
chain: DDESSKPCCDQCACTKSNPPQCRCSDMRLNSCHSACKSCACYNLYGWTCFCVDITDFCYEPCKPSE
notes: also called CT

IC50 [2]: 10 to 50 µM
B11: PEN3-Q-BBIt-TGFβ1 (designed binder)
chain: DPDDESSKPCCDQCICTKSNPPQCRCSDMRPNSCHSACKSCACPENINVLPCTCADITDFCYEPCKPSE
notes: also called BBIt-PEN3-Q-A13I-L29P-F50T-V52A

IC50 [1]: 2 to 10 µM
B12: BBdb-AV (Dolichos biflorus Bowman Birk Inhibitor with CK37281 in the second protease inhibitory loop) (designed binder)
chain: DPSESSKPCCDQCACTKSIPPQCRCTDVRLNSCHSACSSCACYNLYGWTCVCVDMKDFCYEPCK
notes: also called BBIdb-AV

IC50 [1]: 2 to 10 µM
B13: BBIt-VEGKD-A13I-S25K-L29P-V52K (designed binder)
chain: DPDDESSKPCCDQCICTKSNPPQCRCKDMRPNSCHSACKSCICKYDLYWWCFCKDITDFCYEPCKPSE
notes: also called VegKD-Q

IC50 [1]: 2 to 10 µM
B14: BBtc-AV (Torresea cearensis Bowman Birk Inhibitor with CK37281 in the second protease inhibitory loop) (designed binder)
chain: DPSSKWEACCDRCACTKSIPPQCHCADIRLNSCHSACESCACYNLYGWTCRCFDITDFCYKPCSG
notes: also called BBItc-AV

IC50 [5]: > 250 µM | IC50 [6]: > 250 µM
B15: soybean Bowman-Birk Inhibitor (BBI), wild type (other)
chain: DDESSKPCCDQCACTKSNPPQCRCSDMRLNSCHSACKSCICALSYPAQCFCVDITDFCYEPCKPSEDDKEN
notes: Used as the negative control; also called sBBI; BBI-WT

IC50 [7]: 10 to 50 µM
B16: BBIt-VEGF-V5-A13I-S25R-M27A-L29P-S31A-F50K-V52T (designed binder)
chain: DPDDESSKPCCDQCICTKSNPPQCRCRDARPNACHSACKSCACKPSSASSCKCTDITDFCYEPCKPSE
notes: also called BBIt-AV-V5

B17: BBIt-TNFα-T2-A13I-S25R-M27A-L29P-S31A-F50K-V52T (designed binder)
chain: B16 chain with K44A, S46E, S47P, A48I, S49L, S50A
notes: also called BBIt-TNF-T2
IC50 [8]: 50 to 250 µM

B18: BBIt-TNFα-T1-A13I-S25R-M27A-L29P-S31A-F50K-V52T (designed binder)
chain: B16 chain with K44R, P45Y, S46W, S47Q, A48D, S49I, S50P
notes: also called BBIt-TNF-T1
IC50 [9]: 10 to 50 µM

B19: BBIt-TNFα-T3-A13I-S25R-M27A-L29P-S31A-F50K-V52T (designed binder)
chain: B16 chain with K44D, P45M, S46I, S47M, A48V, S50I
notes: also called BBIt-TNF-T3
IC50 [8]: 50 to 250 µM

IC50 [1]: 2 to 10 µM
B20: BBIt-VEGF-V4-A13I-S25R-M27A-L29P-S31A-F50K-V52T (designed binder)
chain: B16 chain with P45H, S47A, A48K, S49A, S50E
notes: also called BBIt-AV-V4

IC50 [7]: 10 to 50 µM
B21: BBIt-VEGF-V1-A13I-S25R-M27A-L29P-S31A-F50K-V52T (designed binder)
chain: B16 chain with K44S, P45K, S46H, A48Q, S49I, S50T
notes: also called BBIt-AV-V1
IC50 [10]: > 250 µM

IC50 [1]: 2 to 10 µM
B22: BBIt-VEGF-V2-A13I-S25R-M27A-L29P-S31A-F50K-V52T (designed binder)
chain: B16 chain with P45T, S46N, S47P, A48S, S49G
notes: also called BBIt-AV-V2

IC50 [7]: 10 to 50 µM
B23: BBIt-VEGF-V6-A13I-S25R-M27A-L29P-S31A-F50K-V52T (designed binder)
chain: B16 chain with K44P, P45V, S46T, S47K, A48R, S49V, S50H
notes: also called BBIt-AV-V6

IC50 [7]: 10 to 50 µM
B24: BBIt-VEGF-V3-A13I-S25R-M27A-L29P-S31A-F50K-V52T (designed binder)
chain: B16 chain with K44R, S46T, S47G, A48H, S50L
notes: also called BBIt-AV-V3
